Test [1] addresses GST-N-terminal truncated MOB1B, N-terminal 10-residue truncated form (mouse) (UniProt Q8BPB0). Put plainly: pull-down; GST-MOB1B and LATS1 proteins (40 μM) mixed 1:1 in 20 mM Tris-HCl (pH 7.5), 0.3 M NaCl, 1 mM DTT, applied to Glutathione Sepharose 4B, washed at 4 °C, eluted with glutathione, SDS-PAGE with Coomassie blue, band intensities.
Test [2] addresses T1, N-terminal truncated MOB1B (33-216) (mouse, UniProt Q8BPB0 33-216).
T1 construct: MOB1B, mouse, residues 33-216; also called N-terminal 32-residue truncated form; N-truncated MOB1B; source: E. coli, purified (Glutathione Sepharose 4B, HRV 3C digestion, HiTrap Q gradient, Superdex 75pg); not shown: GST, N-terminal, cleaved
T1 sequence (looked up): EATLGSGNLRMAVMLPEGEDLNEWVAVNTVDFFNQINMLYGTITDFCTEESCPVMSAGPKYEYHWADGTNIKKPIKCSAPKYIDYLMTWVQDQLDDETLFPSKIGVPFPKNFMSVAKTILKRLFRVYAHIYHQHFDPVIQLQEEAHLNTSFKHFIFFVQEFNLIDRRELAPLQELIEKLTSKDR
Put plainly: crystal structure; 1:1 molar ratio mixture of MOB1B and LATS1 (621-703) crystallised by vapor diffusion, MES pH 6.5, PEG. The settings on record: both partners purified.

The target of test [3] is T2, double-mutant T12D/T35D MOB1B (1-216) (mouse, UniProt Q8BPB0 1-216, T12D | T35D).
T2 construct: MOB1B, mouse, residues 1-216, with T12D and T35D; everywhere else it is T12D/T35D; also called phosphomimic (T12D/T35D) double-mutant; MOB1B(T12/35D); source: E. coli, purified by the same procedure as full-length MOB1B (GST removed); not shown: GST, N-terminal, cleaved
T2 sequence (looked up): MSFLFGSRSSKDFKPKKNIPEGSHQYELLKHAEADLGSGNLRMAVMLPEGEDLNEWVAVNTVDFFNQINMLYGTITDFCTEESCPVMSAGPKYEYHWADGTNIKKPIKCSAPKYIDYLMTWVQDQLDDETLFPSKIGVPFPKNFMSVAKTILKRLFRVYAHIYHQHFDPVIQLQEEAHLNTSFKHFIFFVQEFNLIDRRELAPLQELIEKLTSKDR
The test is described as above. The settings on record: both partners purified.

The target of test [4] is T3, GST-MOB1B, N-terminal 32-residue truncated form (33-216) (mouse, UniProt Q8BPB0 33-216).
T3 construct: MOB1B, mouse, residues 33-216; also called NΔ32; GST-N-truncated Δ32 MOB1B; source: E. coli; GST fusion, purification of this form not described; not shown: GST, N-terminal, kept
T3 sequence (looked up): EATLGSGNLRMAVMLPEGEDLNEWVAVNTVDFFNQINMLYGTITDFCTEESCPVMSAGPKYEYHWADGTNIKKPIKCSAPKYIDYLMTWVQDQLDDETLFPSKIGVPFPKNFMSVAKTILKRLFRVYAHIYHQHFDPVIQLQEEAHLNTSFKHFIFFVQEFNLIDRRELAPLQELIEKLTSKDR
Put plainly: pull-down; GST-MOB1B and LATS1 proteins (40 μM) mixed 1:1 in 20 mM Tris-HCl (pH 7.5), 0.3 M NaCl, 1 mM DTT, applied to Glutathione Sepharose 4B, washed at 4 °C, eluted with glutathione, SDS-PAGE with Coomassie blue, band intensities. Conditions: both partners purified.

Seven molecules from PMC4917820, “Structural basis for autoinhibition and its relief of MOB1 in the Hippo pathway” (Scientific Reports, 2016) can be followed below.

Consider “NTR domain of LATS1 (limits not told for this experiment) (domain or fragment)”, for which, in test [1], the relative autoinhibition of LATS1 binding (full length 100%, NΔ32 0%) was determined as 66%.

B1: NTR domain (residues 621-703) of LATS1 (domain or fragment, mouse, UniProt Q8BYR2 621-703, looked up)
chain: KDEERRESRIQSYSPQAFKFFMEQHVENVLKSHQQRLHRKKQLENEMMRVGLSQDAQDQMRKMLCQKESNYIRLKRAKMDKSM
notes: also called N-terminal regulation (NTR) domain of LATS1; source: E. coli BL21 (DE3) Star, resolubilized from the insoluble fraction, purified (Ni-NTA, HiTrap SP, Superdex 75pg)
With B1, the binding result in test [2], in test [3] and in test [4] was “binds” each time.

B2: NTR domain (residues 604-703) of LATS1 (domain or fragment, mouse, UniProt Q8BYR2 604-703, looked up)
chain: KEKKQITTSPITVRKNKKDEERRESRIQSYSPQAFKFFMEQHVENVLKSHQQRLHRKKQLENEMMRVGLSQDAQDQMRKMLCQKESNYIRLKRAKMDKSM
notes: also called wild-type; source: E. coli BL21 (DE3) Star, resolubilized from the insoluble fraction, purified (Ni-NTA, HiTrap SP, Superdex 75pg)
Turning to B2, the binding result in test [4] is recorded as “binds”.

B3: NTR domain (604-703) of LATS1, R656A (domain or fragment, mouse, UniProt Q8BYR2 604-703, looked up)
chain: KEKKQITTSPITVRKNKKDEERRESRIQSYSPQAFKFFMEQHVENVLKSHQQALHRKKQLENEMMRVGLSQDAQDQMRKMLCQKESNYIRLKRAKMDKSM
notes: source: E. coli, resolubilized, purified (Ni-NTA, Superdex 75pg)
On to B3, for which, in test [4], the “binding relative to the wild-type” value was < 20%.

B4: NTR domain (604-703) of LATS1, R696A (domain or fragment, mouse, UniProt Q8BYR2 604-703, looked up)
chain: KEKKQITTSPITVRKNKKDEERRESRIQSYSPQAFKFFMEQHVENVLKSHQQRLHRKKQLENEMMRVGLSQDAQDQMRKMLCQKESNYIRLKAAKMDKSM
notes: as for B3
Turning to B4, in test [4], the “binding relative to the wild-type” value was < 20%.

B5: NTR domain (604-703) of LATS1, S689E (domain or fragment, mouse, UniProt Q8BYR2 604-703, looked up)
chain: KEKKQITTSPITVRKNKKDEERRESRIQSYSPQAFKFFMEQHVENVLKSHQQRLHRKKQLENEMMRVGLSQDAQDQMRKMLCQKEENYIRLKRAKMDKSM
notes: also called phosphomimetic substitution; source: E. coli, resolubilized, purified (Ni-NTA, Superdex 75pg)
B5: in test [4], the “binding relative to the wild-type” value is < 10%.

B6: NTR domain (604-703) of LATS1, R693A (domain or fragment, mouse, UniProt Q8BYR2 604-703, looked up)
chain: KEKKQITTSPITVRKNKKDEERRESRIQSYSPQAFKFFMEQHVENVLKSHQQRLHRKKQLENEMMRVGLSQDAQDQMRKMLCQKESNYIALKRAKMDKSM
notes: as for B3
With B6, in test [4], the “binding relative to the wild-type” value is < 20%.
